Experimental data from patent US20200281977A1 (HUMANITAS MIRASOLE S P A, published 2020).

Target: T1, IL-18Rα, human (human, UniProt Q13478 19-541)
T1 construct: whole, on cells; Detected on human NK cells with mouse monoclonal anti-IL-18Rα (Clone 70625; R&D Systems); also called IL-1R5/IL-18R
T1 sequence (looked up): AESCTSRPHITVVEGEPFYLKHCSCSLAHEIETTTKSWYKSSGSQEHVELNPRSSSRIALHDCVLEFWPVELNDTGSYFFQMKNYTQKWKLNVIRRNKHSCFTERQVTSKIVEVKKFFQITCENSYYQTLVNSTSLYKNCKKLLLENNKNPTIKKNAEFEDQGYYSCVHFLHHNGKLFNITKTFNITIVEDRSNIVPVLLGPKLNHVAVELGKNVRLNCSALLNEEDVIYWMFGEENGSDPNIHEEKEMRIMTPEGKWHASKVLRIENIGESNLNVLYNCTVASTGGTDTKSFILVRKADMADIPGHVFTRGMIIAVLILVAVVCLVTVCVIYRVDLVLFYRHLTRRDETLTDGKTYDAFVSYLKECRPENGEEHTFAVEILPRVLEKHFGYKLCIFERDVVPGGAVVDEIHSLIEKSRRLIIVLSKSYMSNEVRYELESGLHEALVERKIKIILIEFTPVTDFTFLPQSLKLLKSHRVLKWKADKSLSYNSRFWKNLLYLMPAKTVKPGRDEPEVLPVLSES
Experiment: STED microscopy of human NK cells stimulated with IL-18, co-stained with anti-IL-1R8 and anti-IL-18Rα antibodies
Protocol: Human NK cells were enriched and left to adhere on poly-D-lysine (Sigma-Aldrich)-coated coverslips, stimulated with IL-18 (50 ng ml⁻¹; 1 min, 5 min, 10 min), fixed with 4% PFA, incubated with 5% normal donkey serum (Sigma-Aldrich), 2% BSA, 0.05% Tween in PBS2+ (pH 7.4) (blocking buffer), and then with biotin-conjugated goat polyclonal anti-human IL-1R8 antibody or biotin-conjugated normal goat IgG (all from R&D Systems) and mouse monoclonal anti-IL-18Rα (Clone 70625; R&D Systems) or mouse IgG1 (Invitrogen), all diluted at 5 μg ml⁻¹ in blocking buffer, followed by Alexa Fluor 488-conjugated donkey anti-goat IgG antibody and Alexa Fluor 555 donkey anti-mouse IgG antibody (both from Molecular Probes). Mowiol was used as mounting medium. STED xyz images were acquired in a unidirectional mode with a Leica SP8 STED3X confocal microscope system. Alexa Fluor 488 was excited with a 488 nm argon laser and emission collected from 505 to 550 nm applying a gating between 0.4 and 7 ns to avoid collection of reflection and autofluorescence. Alexa Fluor 555 was excited with a 555/547 nm-tuned white light laser and emission collected from 580 to 620 nm. Line sequential acquisition was applied to avoid fluorescence overlap. The 660 nm CW-depletion laser (80% of power) was used for both excitations. […]

binding result: binds
B1: Interleukin-1 receptor 8 (IL-1R8), human (receptor)
chain: MPGVCDRAPDFLSPSEDQVLRPALGSSVALNCTAWVVSGPHCSLPSVQWLKDGLPLGIGGHYSLHEYSWVKANLSEVLVSSVLGVNVTSTEVYGAFTCSIQNISFSSFTLQRAGPTSHVAAVLASLLVLLALLLAALLYVKCRLNVLLWYQDAYGEVEINDGKLYDAYVSYSDCPEDRKFVNFILKPQLERRRGYKLFLDDRDLLPRAEPSADLLVNLSRCRRLIVVLSDAFLSRAWCSHSFREGLCRLLELTRRPIFITFEGQRRDPAHPALRLLRQHRHLVTLLLWRPGSVTPSSDFWKEVQLALPRKVQYRPVEGDPQTQLQDDKDPMLILRGRVPEGRALDSEVDPDPEGDLGVRGPVFGEPSAPPHTSGVSLGESRSSEVDVSDLGSRNYSARTDFYCLVSKDDM
notes: Endogenous IL-1R8 on human primary NK cells; NP_001128525.1, NP_001128526.1, NP_068577.2); also called SIGIRR; single immunoglobulin IL-1R-related receptor
